{"source": "paper PMC7861197", "about": "(Molecular pharmaceutics, 2020)", "key": {"[1]": {"conditions": "rat axillary lymph nodes, 4 h post dose"}, "[2]": {"assay": "Plasma pharmacokinetics of PLS-FTC vs FTC in rats"}, "[3]": {"assay": "FTC concentrations in rat tissues by LC-MS/MS", "assay_type": "in vivo, Sprague Dawley rats", "conditions": "for concentration at 4 h: male, Sprague Dawley, rat, iv"}, "human PBMCs": {"system": "human PBMCs", "conditions": "24 h incubation at 10 ug/mL FTC, normalized to soluble protein"}, "[4]": {"system": "SR-A1 knockout Raw 264.7 cells (clone 1/2)", "assay": "Confocal microscopy of PLS-488 uptake, SR-A1 deficient RAW cells", "assay_type": "cell-based, murine", "conditions": "SR-A1 deficient RAW cell line"}, "[5]": {"assay": "Lymph node distribution of PLS-488 in mice, anti-Alexa488 immunohistochemistry", "assay_type": "in vivo, C57BL/6 mice", "conditions": "6 h and 24 h"}, "[6]": {"system": "SR-A1 deficient RAW 264.7 derivative cell line (Clone 1/2)", "assay": "Flow cytometry of PLS-488 uptake, SR-A1 deficient Clone 1/2", "assay_type": "cell-based, murine", "conditions": "SR-A1 deficient Clone 1/2, 24 h incubation"}, "[7]": {"system": "wild-type RAW 264.7 cells", "assay": "Flow cytometry of PLS-488 uptake, wild-type RAW 264.7 cells", "assay_type": "cell-based, murine", "conditions": "wild-type RAW 264.7, 24 h incubation"}, "[8]": {"system": "wild type Raw 264.7 cells", "assay": "Confocal microscopy of PLS-488 uptake, wild type RAW 264.7 cells", "assay_type": "cell-based, murine"}, "[9]": {"assay": "In vitro drug release in human plasma with or without esterase inhibitor PMSF", "conditions": "PMSF-treated vs untreated human plasma"}, "[10]": {"target": "T1, scavenger receptor A (SR-A) (Mus musculus, UniProt P30204)", "T1 sequence (P30204 1-458)": "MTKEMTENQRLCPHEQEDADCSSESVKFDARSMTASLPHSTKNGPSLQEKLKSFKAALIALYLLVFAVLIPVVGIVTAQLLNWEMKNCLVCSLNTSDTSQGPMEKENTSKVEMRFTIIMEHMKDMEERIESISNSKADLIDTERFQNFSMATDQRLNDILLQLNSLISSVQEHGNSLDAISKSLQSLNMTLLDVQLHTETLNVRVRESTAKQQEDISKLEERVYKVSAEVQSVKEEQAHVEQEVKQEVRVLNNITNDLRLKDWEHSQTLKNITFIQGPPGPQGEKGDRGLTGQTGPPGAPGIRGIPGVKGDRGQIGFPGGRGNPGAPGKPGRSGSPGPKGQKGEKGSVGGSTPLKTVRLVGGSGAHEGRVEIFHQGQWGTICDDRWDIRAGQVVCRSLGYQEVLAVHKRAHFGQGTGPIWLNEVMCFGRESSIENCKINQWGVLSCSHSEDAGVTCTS", "assay": "Scavenger receptor A competitive inhibition studies in RAW 264.7 cells", "assay_type": "cell-based, murine", "conditions": "RAW 264.7, 3 h co-treatment, 200 μg/mL poly I or poly C, PLS-488 4.22 ng/mL to […] (Figure 2A)"}, "[11]": {"conditions": "male, Sprague Dawley, rat, plasma, iv, 10 mg/kg"}, "[12]": {"conditions": "FTC in plasma, rats, i.v. bolus 10 mg FTC equivalents/kg, mean ± SD (n=8)"}, "[13]": {"conditions": "rats, i.v. bolus 10 mg FTC equivalents/kg"}, "[14]": {"conditions": "rats, 4 h post i.v. injection, 10 mg FTC equivalents/kg, mean ± SD, n=3"}}}
{"compound": "Nc1nc(=O)n([C@@H]2CS[C@H](CO)O2)cc1F", "note": "[FTC, Emtricitabine, reference compound]", "values": [{"measurement": "FTC signal abundance (IR-MALDESI MSI)", "setting": "[1]", "result": "18.5 ± 16.6", "unit": "arbitrary units"}, {"measurement": "frequency of detection", "setting": "[1]", "result": "2.9 ± 2.8 % of sampling locations with measurable drug"}, {"measurement": "AUC", "setting": "[2]; [11]", "result": "6400 ± 1010", "unit": "ng·h/mL"}, {"measurement": "C0", "setting": "[2]; [11]", "result": "10600 ± 2950", "unit": "ng/mL"}, {"measurement": "Cmax", "setting": "[2]; [11]", "result": "5850 ± 853", "unit": "ng/mL"}, {"measurement": "MRT", "setting": "[2]; [11]", "result": "1.8 ± 0.32", "unit": "h"}, {"measurement": "Vd", "setting": "[2]; [11]", "result": "2.94 ± 1.09", "unit": "L/kg"}, {"measurement": "clearance", "setting": "[2]; [11]", "result": 26.7, "unit": "mL/min/kg"}, {"measurement": "half-life", "setting": "[2]; [11]", "result": "14.1 ± 5.17", "unit": "h"}, {"measurement": "concentration at 4 h", "setting": "[3]; axillary lymph node, 10 mg FTC equivalents/kg", "result": "109 ± 37", "unit": "ng/g"}, {"measurement": "concentration at 4 h", "setting": "[3]; inguinal lymph node, 10 mg FTC equivalents/kg", "result": "87 ± 51", "unit": "ng/g"}, {"measurement": "concentration at 4 h", "setting": "[3]; liver, 10 mg FTC equivalents/kg", "result": "119 ± 51", "unit": "ng/g"}, {"measurement": "concentration at 4 h", "setting": "[3]; popliteal lymph node, 10 mg FTC equivalents/kg", "result": "105 ± 64", "unit": "ng/g"}, {"measurement": "concentration at 4 h", "setting": "[3]; spleen, 10 mg FTC equivalents/kg", "result": "106 ± 44", "unit": "ng/g"}, {"measurement": "FTC concentration in PBMCs", "setting": "human PBMCs", "result": "182 ± 18", "unit": "ng/mg protein"}]}
{"compound": "AlexaFluor488-labelled poly(L-lysine succinylated) [PLS-488]", "values": [{"measurement": "PLS-488 uptake by confocal microscopy", "setting": "[4]", "result": "greatly reduced PLS-488 uptake"}, {"measurement": "accumulation in lymph nodes (IHC)", "setting": "[5]; intradermal injection into foot pads", "result": "robust accumulation of PLS-488 in regions of the draining (popliteal) and peripheral (axillary and inguinal) lymph nodes"}, {"measurement": "accumulation in lymph nodes (IHC)", "setting": "[5]; intravenous tail vein injection", "result": "early accumulation of PLS-488 into myeloid-rich regions of the deep mesenteric lymph nodes by 6 h, with later accumulation in peripheral lymph nodes"}, {"measurement": "uptake of PLS-488 by flow cytometry", "setting": "[6]", "result": "no uptake"}, {"measurement": "uptake of PLS-488 by flow cytometry", "setting": "[7]", "result": "uniform uptake"}, {"measurement": "PLS-488 uptake by confocal microscopy", "setting": "[8]; wild type Raw 264.7, 1 μg/mL, 0.5 h", "result": "uptake was observed at the earliest 0.5 h time point"}, {"measurement": "PLS-488 fluorescence signal after 24 h treatment", "setting": "[8]; wild type vs SR-A1 deficient Raw cells, 1 μg/mL, 24 h", "result": "markedly greater in the wild type Raw 264.7 cells than the SR-A1 deficient Raw cells"}]}
{"compound": "poly(L-lysine succinylated) FTC prodrug [PLS-FTC]", "values": [{"measurement": "prolongation of release half-life in PMSF-treated plasma", "setting": "[9]", "result": "~ 2 fold"}, {"measurement": "AUCall", "setting": "[2]; [12]", "result": "11100 ± 3281 ^* h*ng/mL"}, {"measurement": "C0", "setting": "[2]; [12]", "result": "4901 ± 3621", "unit": "ng/mL"}, {"measurement": "Cl", "setting": "[2]; [12]", "result": "17.55 ± 10.3", "unit": "mL/min/kg"}, {"measurement": "Cmax", "setting": "[2]; [12]", "result": "3839 ± 1734", "unit": "ng/mL"}, {"measurement": "MRT", "setting": "[2]; [12]", "result": "3.64 ± 0.47", "unit": "h"}, {"measurement": "T1/2", "setting": "[2]; [12]", "result": "6.99 ± 2.62", "unit": "h"}, {"measurement": "Vss", "setting": "[2]; [12]", "result": "3.816 ± 2.254", "unit": "L/kg"}, {"measurement": "fold higher area under the concentration-time curve vs FTC control", "setting": "[2]; [13]", "result": 2, "unit": "fold"}, {"measurement": "fold higher mean residence time vs FTC control", "setting": "[2]; [13]", "result": 2, "unit": "fold"}, {"measurement": "fold lower concentration time zero vs FTC control", "setting": "[2]; [13]", "result": 2, "unit": "fold"}, {"measurement": "fold lower half-life vs FTC control", "setting": "[2]; [13]", "result": 2, "unit": "fold"}, {"measurement": "FTC concentration in axillary lymph node", "setting": "[3]; [14]", "result": "811 ± 65", "unit": "ng/g"}, {"measurement": "FTC concentration in inguinal lymph node", "setting": "[3]; [14]", "result": "587 ± 56", "unit": "ng/g"}, {"measurement": "FTC concentration in liver", "setting": "[3]; [14]", "result": "2,257 ± 143 ng/g"}, {"measurement": "FTC concentration in mesenteric lymph node", "setting": "[3]; [14]", "result": "850 ± 540", "unit": "ng/g"}, {"measurement": "FTC concentration in popliteal lymph node", "setting": "[3]; [14]", "result": "864 ± 330", "unit": "ng/g"}, {"measurement": "FTC concentration in spleen", "setting": "[3]; [14]", "result": "1,788 ± 164 ng/g"}, {"measurement": "fold higher concentrations in lymphatic tissues compared to free FTC control", "setting": "[3]; rats, 4 h post injection, lymph nodes, liver, spleen", "result": "7 to 19", "unit": "fold"}, {"measurement": "FTC concentration in LN inguinal at 24 h", "setting": "[3]; rats, 24 h after i.v. bolus", "result": "below limit of quantitation"}]}
{"compound": "poly(cytidylic acid) potassium salt [poly C]", "values": [{"measurement": "inhibition of PLS-488 binding to macrophages", "setting": "[10]", "result": "not with the control polymer poly C"}]}
